Results taken from patent publication US20030198971A1.

Target: c-fos leucine zipper helix fused via (Gly4Ser)3 linker to BLIP-D49A, fused via a similar linker to β-lactamase (tri-partite cis-inhibited β-lactamase fusion) (UniProt P01100)
Assay: cell-based or functional assay

| Substance | % plating efficiency on 10 µg/ml ampicillin, 100 µM IPTG [%] | % plating efficiency on 25 µg/ml ampicillin, 100 µM IPTG [%] | % plating efficiency on 50 µg/ml ampicillin, 100 µM IPTG [%] | % plating efficiency on 100 µg/ml ampicillin, 100 µM IPTG [%] | % plating efficiency on 10 µg/ml ampicillin, 100 µM IPTG, c-jun-trx co-expressed as inhibitor [%] | % plating efficiency on 25 µg/ml ampicillin, 100 µM IPTG, c-jun-trx co-expressed as inhibitor [%] | % plating efficiency on 50 µg/ml ampicillin, 100 µM IPTG, c-jun-trx co-expressed as inhibitor [%] | % plating efficiency on 100 µg/ml ampicillin, 100 µM IPTG, c-jun-trx co-expressed as inhibitor [%] | fold reduction of plating efficiency on 100 µg/ml ampicillin by co-expressed c-jun-trx [fold] |
| --- | --- | --- | --- | --- | --- | --- | --- | --- | --- |
| BIP (β-lactamase-S70A) without amino-terminal c-jun helix (from UniProt P62593 24-286) | 100 | 0.7 | < 0.01 | < 0.01 |  |  |  |  |  |
| BLIP-F142A without amino-terminal c-jun helix (from UniProt P35804 37-201) | 100 | 4 | < 0.01 | < 0.01 |  |  |  |  |  |
| c-jun leucine zipper helix fused via (Gly4Ser)3 linker to BIP (β-lactamase-S70A) (from UniProt P05412 276-315; P62593 24-286) | 100 | 100 | 100 | 100 | 100 | 100 | 9 | 0.08 | > 1000 |
| c-jun leucine zipper helix fused via (Gly4Ser)3 linker to BLIP-F142A (from UniProt P05412 276-315; P35804 37-201) | 100 | 100 | 100 | 100 | 100 | 100 | 75 | 0.5 |  |
